Laboratory results reported in paper PMC7263513 (bioRxiv, 2020).

B1: C114 (antibody, V domains shown)
VH: QVQLVESGGGLIQPGGSLKLSCVVSGFTVSKNYISWVRQAPGKGLEWVSVIFAGGSTFYADSVKGRFAISRDNSNNTLFLQMNSLRVEDTAIYYCARGDGELFFDQWGQGTLVTVSS
VL: QSVLTQPPSVSGAPGQRVTISCTGTSSNIGAGYDVHWYQQLPGRAPKVLISGNNIRPSEVPDRFSGSRSGTSASLAITSLQPEDEAQYYCQSYDSSLYAVFGGGTKLTVL
B2: C133 (antibody, V domains shown)
VH: QVQLVESGGGVVQPGRSLRLSCAASGFTFSSYAMHWVRQAPGKGLEWVAVILYDGSNKYYADSVKGRFTISRDNSKNTLYLQMNSLRAEDTAVYYCARDSDVDTSMVTWFDYWGQGTLVTVSS
VL: not shown
B3: C118 (antibody, V domains shown)
VH: QVQLVESGGGVVQPGRSLRLSCAASGFTFSNYAMHWVRQAPGKGLEWVAVISYDGSNKYYADSVKGRFTISRDNSKNTLYLQMNSLRAEDTAIYYCASGYTGYDYFVRGDYYGLDVWGQGTTVTVSS
VL: QPVLTQSPSASASLGASVKLTCTLSSGHSSYAIAWHQQQPEKGPRYLMKLNTDGSHSKGDGIPDRFSGSSSGAERYLTISSLQSEDEADYYCQTWGTGILVFGGGTKLTVL
B4: C122 (antibody, V domains shown)
VH: EVQLVESGGGLIQPGGSLRLSCAASGLTVSSNYMSWVRQAPGKGLEWVSVLYSGGSSFYADSVKGRFTISRDNSKNTLYLQMNSLRAEDTAVYYCARESGDTTMAFDYWGQGTLVTVSS
VL: DIQLTQSPSFLSASVGDRVTITCRASQGISSYLAWYQQKPGKAPKLLIYAASTLQSGVPSRFSGSGSGTEFTLTISSLQPEDFATYYCQQLNSDSYTFGQGTKLEIK
B5: C123 (antibody, V domains shown)
VH: EVQLVESGGGLIQPGGSLRLSCAASGVTVSRNYMSWVRQAPGKGLEWVSVIYSGGSTYYADSVKGRFTISRDNSKNTLYLQMNSLRAEDTAVYYCARDLSAAFDIWGQGTMVTVSS
VL: DIQLTQSPSFLSASVGDRVTITCRASQGISSYLAWYQQKPGKAPKLLIYAASTLQSGVPSRFSGSGSGTEFTLTISSLQPEDFATYYCQQLNSYPPAFGQGTRLEIK
B6: C140 (antibody, V domains shown)
VH: EVQLVESGGGLVQPGGSLRLSCAASGVTVSSNYMSWVRQAPGKGLEWVSLIYSGGSTFYADSVKGRFTISRDNSENTLYLQMNTLRAEDTAVYYCARDLYYYGMDVWGQGTTVTVSS
VL: DIQLTQSPSFLSASVGDRVTITCRASQGISSYLAWYQQKPGKAPKLLIYAASTLQSGVPSRFSGSGSGTEFTLTISSLQPEDFATYYCQQLNSYSYTFGQGTKLEIK
B7: C130 (antibody, V domains shown)
VH: QVQLVQSGAEVKKPGASVKVSCKASGYTFTNYYMHWVRQAPGQGLEWMGIINPSGGSTGYAQKFQGRVTMTRDTSTSTVYMELSSLRSEDTAVYYCARSRPTPDWYFDLWGRGTLVTVSS
VL: SYELTQPPSVSVAPGKTARITCGGNNIGSKSVHWYQQKPGQAPVLVIYYDSDRPSGIPERFSGSNSGNTATLTISRVEAGDEADYYCQVWDSSSDHPGVVFGGGTKLTVL
B8: C134 (antibody, V domains shown)
VH: EVQLLESGGGLVQPGGSLRLSCAASGFTFSNYAMSWVRQAPGKGLEWVSAISGSDGSTYYAGSVKGRFTISRDNSKNTLYLQMNSLRAEDTAVYYCAKDPLITGPTYQYFHYWGQGTLVTVSS
VL: SYELTQPPSVSVAPGKTARITCGGNNIGSKSVHWYQQKPGQAPVLVIYYDSDRPSGIPERFSGSNSGNTATLTISRVEAGDEAEYHCQVWDSSSDRPGVVFGGGTKLTVL
B9: C139 (antibody, V domains shown)
VH: EVQLVESGGGVVQPGRSLRLSCAASGFTFSSYAMHWVRQAPGKGLEWVAVISYDGSNKYSADSVKGRFTISRDNSKNTLYLQMNSLRAEDTAVYYCAKGGAYSYYYYMDVWGKGTTVTVSS
VL: not shown
B10: C119 (antibody, V domains shown)
VH: QVQLVQSGAEVKKPGASVKVSCKASGYTFTSYYMHWVRQAPGQGLEWMGIINPSGGSTSYAQKLQGRVTMTRDTSTSTVYMELSSLRSEDTAVYYCARANHETTMDTYYYYYYMDVWGKGTTVTVSS
VL: QSALTQPASVSGSPGQSITISCTGTSSDVGGYKYVSWYQRHPGKAPKLMIYDVSNRPSGVSNRFSGSKSGNTASLTISGLQAEDEADYYCSSYTSSSTSVVFGGGTQLTVL
B11: C128 (antibody, V domains shown)
VH: EVQLLESGGGLVQPGGSLRLSCAASGFTFSTYAMSWVRQAPGKGLEWVSTITGSGRDTYYADSVKGRFTISRDNSKNTLFLQLNSLRAEDAAVYSCANHPLASGDDYYHYYMDVWGKGTTVTVSS
VL: EIVLTQSPGTLSLSPGERATLSCRASQSVNSRQLAWYQQKPGQAPRLLIYGASSRATGIPERFSGSGSGTDFTLTISRLESEDFAVYHCQQYGSSRALTFGGGTKVEIK
B12: C126 (antibody, V domains shown)
VH: QVQLQESGPGLVKPSETLSLSCAVSGGSIGSYFWSWIRQPPGKGLEWIGYLHYSGSTNYNPSLKSRVTISVDTSKNQFSLKLSSVTAADTAVYYCARLQWLRGAFDIWGQGTMVTVSS
VL: NFMLTQPHSVSESPGKTVTISCTGSSGSIASNYVQWYQQRPGSAPTTVINEDNQRPSGVPDRFSGSIDSSSNSASLTISGLKTEDEADYYCQSYDSSNLVFGGGTKLTVL
B13: C141 (antibody, V domains shown)
VH: not shown
VL: NFMLTQPHSVSESPGKTVTISCTGSSGSIASNYVQWYQQRPGSAPTTVIYEDNQRPSGVPDRFSGSIDSSSNSASLTISGLKTEDEADYYCQSYDSSNWVFGGGTKLTVL
B14: C138 (antibody, V domains shown)
VH: EVQLVESGGGLVQPGGSLRLSCAASGFTFSTYWMSWVRQPPGKGLEWVANIKQDGSEKYYVDSVKGRFTISRDNAKNSLYLQMNSLRADDTAVYYCAGGTWLRSSFDYWGQGTLVTVSS
VL: NFMLTQPHSVSESPGKTVTISCTGSSGSIASNYVQWYQQRPGSAPTTVIYEDNQRPSGVPDRFSGSIDSSSNSASLTISGLKTEDEADYYCQSYDSSNWVFGGGTKLTVL
B15: C121 (antibody, V domains shown)
VH: not shown
VL: QSALTQPASVSGSPGQSITISCTGTSSDVGSYNLVSWYQQHPGKAPKLMIYEGSKRPSGVSNRFSGSKSGNTASLTISGLQAEDEADYYCCSYAGSSTLVFGGGTKLTVL
B16: C132 (antibody, V domains shown)
VH: QVQLQESGPGLVKPSGTLSLTCAVSGGSISSNNWWSCVRQPPGKGLEWIGEIYHSGSTNYNPSLKSRVTISVDKSKNQFSLKLSSVTAADTAVYYCARGGDTAMGPEYFDYWGQGTLVTVSS
VL: QSALTQPASVSGSPGQSITISCTGTSSDVGGYNYVSWYQQHPGKAPKLMIYDVSNRPSGVSNRFSGSKSGNTASLTISGLQAEDEADYYCSSYTSSSTLLFGGGTKLTVL
B17: C117 (antibody, V domains shown)
VH: QVQLVESGGGVVQPGRSLRLSCAASGFTFSTYAMHWVRQAPGEGLEWVAVISYDGSNTYYADSVKGRFTISRDNSKNTLYLQMNSLRAEDTAVYYCARDPIWFGELLSPPFVHFDYWGQGTLVTVSS
VL: QSVLTQPPSVSAAPGQKVTISCSGSSSNIGNNLVSWYQQLPGTAPKLLIYENNKRPSGIPDRFSGSKSGTSATLGITGLQTGDEADYYCGAWDSSLSAGGVYVFGTGTKVTVL
B18: C116 (antibody, V domains shown)
VH: QVQLVESGGGVVQPGRSLRLSCAASGFTYSTYAMHWVRQAPGKGLEWVAFISYDGSNKYYADSVKGRFTISRDNSKNTLYLQMNSLRAEDTAVYYCARDFYHNWFDPWGQGTLVTVSS
VL: NFMLTQPHSVSESPGKTVTISCTGSSGSIASNYVQWYQQRPGSAPTTVIYEDNQRPSGVPDRFSGSIDRSSNSASLTISGLKTEDEADYYCQSYDSGNHWVVFGGGTRLTVL
B19: C120 (antibody, V domains shown)
VH: EVQLVESGGGLIQPGGSLRLSCAASGFTVSSNYMTWVRQAPGKGLEWVSLIYPGGSTYYADSVKGRFTISRDNSKNTLYLQMNSLRAEDTAVYYCAREGMGMAAAGTWGQGTLVTVSS
VL: AIRMTQSPSSLSASVGDTVTITCQASQDISKYLNWYQQKPGKAPKLLIYDASNLETGVPSRFSGSGSGTDFTFTISSLQPEDIATYYCQQYDNLPQTFGGGTKVEIK
B20: C124 (antibody, V domains shown)
VH: EVQLVESGGGLVQPGGSLRLSCAASGFTFSGYSMNWVRQAPGKGPEWVSYISRSSSTIYYADSVKGRFTISRDNAKNSLYLQMNSLRDEDTAVYYCAREGARVGATYDTYYFDYWGQGTLVTVSS
VL: EIVLTQSPATLSLSPGERATLSCRASQSFSSYLAWYQQKPGQAPRLLIYDASNRATGIPARFSGSGSGTDFTLTISSLEPEDFAVYYCQQRNNWPPEWTFGQGTKVEIK
B21: C131 (antibody, V domains shown)
VH: QVQLVQSGSEVKKPGSSVKVSCKASGGTFSSYAFSWVRQAPGQGLEWMGRIIPILALANYAQKFQGRVTITADKSTSTAYMELSSLRSEDTAVYYCARVNQAVTTPFSMDVWGQGTTVTVSS
VL: not shown
B22: C115 (antibody, V domains shown)
VH: QVQLVESGGGLIKPGRSLRLSCTASGFTFGDYAMTWFRQAPGKGLEWVGFIRSKAYGGTTGYAASVKYRFTISRDDSKSIAYLQMDSLKTEDTAVYYCTRWDGWSQHDYWGQGTLVTVSS
VL: DIVMTQSPLSLSVTPGEPASISCRSSQSLLHSNGNNYFDWYLQKPGQSPQLLIYLGSNRASGVPDRFSGSGSGTDFTLKISRVEAEDVGVYYCMQVLQIPYTFGQGTKLEIK

Biological target: SARS-CoV-2 receptor binding domain (RBD) (Severe acute respiratory syndrome …, UniProt P0DTC2)
Assay: cell-based or functional assay

Point of comparison: B17, “IC50 of neutralisation of SARS-CoV-2 pseudovirus (293T_(ACE2) cells)” value 0.348 µg/mL. Against it:
- B1 — higher, > 1 µg/mL
- B2 — higher, > 1 µg/mL
- B3 — 3.3-fold lower, 0.104 µg/mL
- B4 — 15-fold lower, 0.0228 µg/mL
- B5 — 2.3-fold lower, 0.149 µg/mL
- B6 — 15-fold lower, 0.0239 µg/mL
- B7 — higher, > 1 µg/mL
- B8 — higher, > 1 µg/mL
- B9 — higher, > 1 µg/mL
- B10 — 38-fold lower, 0.00912 µg/mL
- B11 — 3.4-fold lower, 0.101 µg/mL
- B12 — higher, > 1 µg/mL
- B13 — higher, > 1 µg/mL
- B14 — higher, > 1 µg/mL
- B15 — 52-fold lower, 0.00673 µg/mL
- B16 — 2-fold higher, 0.709 µg/mL
- B18 — higher, > 1 µg/mL
- B19 — 26-fold lower, 0.0133 µg/mL
- B20 — within 1.5-fold, 0.342 µg/mL
- B21 — 11-fold lower, 0.0305 µg/mL
- B22 — 1.8-fold lower, 0.198 µg/mL
